According to patent US20250011363A1, “OPTIMIZED SHORTENED PEPTIDE THAT BINDS TO ACETYLCHOLINE RECEPTOR, AND USE THEREOF” (SKINMED CO., LTD., priority 2021, published 2025):

What follows are substances tested against acetylcholine receptor (Homo sapiens, UniProt P02708) (assay: SPR binding affinity (RU) of optimized 5mer/6mer/7mer peptides, Examples 6-7). Conditions: 6mer-1 Top sequence; SPR; peptides tested at 10 μM.
How it was run: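 Response units from SPR give the binding values listed. Each synthesized peptide was run at 10 μM over the receptor.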

Chain of acetylcholine receptor (P02708 21-457): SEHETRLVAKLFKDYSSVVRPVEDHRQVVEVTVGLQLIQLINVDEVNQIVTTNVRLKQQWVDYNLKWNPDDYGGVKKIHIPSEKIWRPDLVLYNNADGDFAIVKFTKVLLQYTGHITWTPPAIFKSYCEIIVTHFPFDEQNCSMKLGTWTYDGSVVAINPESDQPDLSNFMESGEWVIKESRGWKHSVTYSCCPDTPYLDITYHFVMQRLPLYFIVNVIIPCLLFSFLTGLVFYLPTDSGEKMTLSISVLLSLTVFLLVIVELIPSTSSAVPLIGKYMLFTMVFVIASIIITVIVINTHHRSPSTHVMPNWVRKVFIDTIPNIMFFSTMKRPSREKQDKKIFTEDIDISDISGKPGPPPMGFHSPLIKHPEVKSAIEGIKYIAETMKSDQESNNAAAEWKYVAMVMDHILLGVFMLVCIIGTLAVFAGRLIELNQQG

Row | Substance | Binding affinity [Ru]
1 | 6mer-1-211 (KKQLLR) | 123
2 | 6mer-1-362 (KRVVYK) | 133
3 | 6mer-1-309 (KKGICK) | 153
4 | 6mer-1-203 (RRQITR) | 142
5 | 6mer-1-371 (KRSLTR) | 153
6 | 6mer-1-341 (RKQQQR) | 128

Same assay, conditions: 6mer-2 Top sequence; SPR; peptides tested at 10 μM

Row | Substance | Binding affinity [Ru]
7 | 6mer-2-160 (RVRRKK) | 121
8 | 6mer-2-57 (KQRCRR) | 139
9 | 6mer-2-169 (KRQSRR) | 123
10 | 6mer-2-143 (RRVCRR) | 128
11 | 6mer-2-139 (KLFRKK) | 149
12 | 6mer-2-118 (KWFSRR) | 135
13 | 6mer-2-49 (RLRCRK) | 154
14 | 6mer-2-128 (KSYYRR) | 147
15 | 6mer-2-112 (RLQQKR) | 142
16 | 6mer-2-16 (KGVCRR) | 121

Same assay, conditions: SPR, Resonance Units; 5mer Bottom sequence (bottom combinations); peptides tested at 10 μM

Row | Substance | Binding affinity [Ru]
17 | 5mer-968 (RIPHR) | 11
18 | 5mer-770 (KKPFR) | 11
19 | 5mer-800 (KEAPR) | 29
20 | 5mer-673 (RISPR) | 14
21 | 5mer-690 (RAEIK) | 12
22 | 5mer-712 (RADFK) | 18
23 | 5mer-912 (KKMGR) | 16
24 | 5mer-751 (RYMMR) | 20
25 | 5mer-688 (RPHFK) | 31
26 | 5mer-765 (RNEFR) | 12
27 | 5mer-645 (RHKDK) | 20
28 | 5mer-698 (KFDWK) | 12
29 | 5mer-616 (KFCPR) | 15
30 | 5mer-622 (RKPKR) | 22

Same assay, conditions: SPR, Resonance Units; peptides tested at 10 μM; 6mer-1 Bottom sequence

Row | Substance | Binding affinity [Ru]
31 | 6mer-1-1142 (KKETPR) | 24
32 | 6mer-1-1069 (KKIWAR) | 23
33 | 6mer-1-1060 (KRYNVR) | 21
34 | 6mer-1-1049 (KKDHKK) | 31
35 | 6mer-1-1056 (RRNTAK) | 27
36 | 6mer-1-1033 (KRHMVK) | 30
37 | 6mer-1-1036 (KKITFR) | 21

Same assay, conditions: SPR, Resonance Units; peptides tested at 10 μM; 6mer-1 Bottom sequence (Table 11)

Row | Substance | Binding affinity [Ru]
38 | 6mer-1-672 (RKMEIR) | 17
39 | 6mer-1-768 (RKFEWK) | 32
40 | 6mer-1-703 (KKFHPR) | 18
41 | 6mer-1-742 (RRFHWR) | 14
42 | 6mer-1-675 (KKIWKR) | 21
43 | 6mer-1-784 (KKFTPK) | 33
44 | 6mer-1-620 (RRKTAK) | 11
45 | 6mer-1-754 (RKKKMK) | 24
46 | 6mer-1-749 (RKPHWR) | 33
47 | 6mer-1-795 (KKCHMR) | 12
48 | 6mer-1-633 (RKIDAK) | 16
49 | 6mer-1-714 (KRTSFK) | 25

Same assay, conditions: SPR, Resonance Units; peptides tested at 10 μM; 6mer-2 Bottom sequence

Row | Substance | Binding affinity [Ru]
50 | 6mer-2-971 (KEMFRK) | 29
51 | 6mer-2-890 (RDNPKR) | 30
52 | 6mer-2-909 (RCNPRR) | 42
53 | 6mer-2-906 (KYCDKK) | 40
54 | 6mer-2-761 (RTEPRK) | 29
55 | 6mer-2-895 (KYMAKK) | 28
56 | 6mer-2-611 (RIKMRR) | 22
57 | 6mer-2-756 (KPTNRK) | 26
58 | 6mer-2-853 (KHTGRR) | 29
59 | 6mer-2-929 (KNHMRK) | 26
60 | 6mer-2-770 (KPNMKK) | 24
61 | 6mer-2-854 (RCNWKR) | 23
62 | 6mer-2-703 (RTMHKR) | 14

Same assay, conditions: SPR, Resonance Units; peptides tested at 10 μM; 6mer-2 Top sequence

Row | Substance | Binding affinity [Ru]
63 | 6mer-2-546 (RVFTKK) | 127
64 | 6mer-2-426 (KGQRRK) | 141
65 | 6mer-2-542 (RQIYRR) | 148
66 | 6mer-2-421 (KVICRK) | 124
67 | 6mer-2-496 (RVRYRK) | 144
68 | 6mer-2-468 (RSFSKR) | 133

Same assay, conditions: SPR, Resonance Units; peptides tested at 10 μM; 6mer-2 Top sequence (Table 12)

Row | Substance | Binding affinity [Ru]
69 | 6mer-2-313 (RWRTKR) | 154
70 | 6mer-2-239 (RGQYKK) | 125
71 | 6mer-2-217 (KLFQKK) | 135
72 | 6mer-2-361 (RSFQRR) | 153
73 | 6mer-2-296 (KWYRRK) | 135
74 | 6mer-2-306 (RQFQKR) | 141

Same assay, conditions: SPR, peptides at 10 μM; 6mer-2 Bottom sequence

Row | Substance | Binding affinity [Ru]
75 | 6mer-2-1088 (RPCEKK) | 39
76 | 6mer-2-1045 (RHAHRR) | 41
77 | 6mer-2-1178 (KTTVRK) | 30
78 | 6mer-2-1189 (KTAPKK) | 40
79 | 6mer-2-1163 (KCHFKK) | 37
80 | 6mer-2-1007 (RHTNKK) | 42
81 | 6mer-2-1053 (KEMGKK) | 34

Same assay, conditions: SPR, peptides tested at 10 μM; 5mer Top sequence

Row | Substance | Binding affinity [Ru]
82 | 5mer-43 (KSFYR) | 53
83 | 5mer-455 (RWLYK) | 61
84 | 5mer-349 (KQVYR) | 50
85 | 5mer-16 (KLYTK) | 66
86 | 5mer-138 (RQRCR) | 71
87 | 5mer-33 (RRISK) | 59
88 | 5mer-123 (KWIRR) | 53
89 | 5mer-424 (RVYLK) | 87
90 | 5mer-117 (RSVYK) | 69
91 | 5mer-345 (RQQRR) | 86
92 | 5mer-40 (KSVCR) | 67
93 | 5mer-143 (KGQQR) | 64
94 | 5mer-369 (RGFTR) | 84
95 | 5mer-165 (KWRSK) | 56
96 | 5mer-175 (RWQLK) | 63
97 | 5mer-188 (KWFSK) | 82
98 | 5mer-119 (KQIRK) | 60
99 | 5mer-41 (KVISK) | 82
100 | 5mer-86 (RRLCK) | 55
101 | 5mer-78 (KVICK) | 79
102 | 5mer-196 (RSYYR) | 69
103 | 5mer-173 (RSVSR) | 59

Same assay, conditions: SPR, peptides tested at 10 μM; 5mer Top sequence (top combinations)

Row | Substance | Binding affinity [Ru]
104 | 5mer-580 (RGYTR) | 70
105 | 5mer-226 (RRYTR) | 60
106 | 5mer-539 (RVVTR) | 70
107 | 5mer-273 (RVQSK) | 82
108 | 5mer-528 (RVLLR) | 50
109 | 5mer-596 (KLQQR) | 56
110 | 5mer-584 (KQIQK) | 76
111 | 5mer-213 (RQYTK) | 83
112 | 5mer-282 (RVLTR) | 77
113 | 5mer-268 (KRYCK) | 54

Same assay, conditions: SPR, peptides tested at 10 μM; 6mer-1 Bottom sequence (Table 11)

Row | Substance | Binding affinity [Ru]
114 | 6mer-1-992 (RRCTAK) | 28
115 | 6mer-1-909 (RKFCMR) | 33
116 | 6mer-1-832 (RKYWGK) | 12
117 | 6mer-1-929 (RRCDHK) | 25
118 | 6mer-1-966 (RRNSWK) | 22
119 | 6mer-1-918 (RRESMR) | 33
120 | 6mer-1-910 (KRPTIR) | 42
121 | 6mer-1-926 (KRESDR) | 40
122 | 6mer-1-882 (KKPAMR) | 25

Same assay, conditions: SPR, peptides tested at 10 μM; 6mer-1 Top sequence

Row | Substance | Binding affinity [Ru]
123 | 6mer-1-564 (KRSITK) | 139
124 | 6mer-1-417 (RKSVCK) | 139
125 | 6mer-1-428 (KRVVLR) | 139
126 | 6mer-1-495 (RKGFQR) | 126
127 | 6mer-1-460 (RRGFYR) | 148
128 | 6mer-1-472 (KRQRCK) | 142
129 | 6mer-1-407 (KRLRTR) | 153
130 | 6mer-1-465 (RKQVYK) | 154

Same assay, conditions: SPR, peptides tested at 10 μM; 6mer-1 Top sequence (top combinations)

Row | Substance | Binding affinity [Ru]
131 | 6mer-1-199 (KKQVQK) | 151
132 | 6mer-1-2 (RKQILR) | 142
133 | 6mer-1-158 (RRLIYR) | 131
134 | 6mer-1-44 (KRQYCK) | 148
135 | 6mer-1-35 (RRGRQR) | 136
136 | 6mer-1-84 (RRGQTK) | 142
137 | 6mer-1-70 (KKLLYR) | 139
138 | 6mer-1-201 (RRRIQR) | 151
139 | 6mer-1-202 (RRQLTK) | 154
140 | 6mer-1-78 (KKRVSK) | 145
141 | 6mer-1-8 (RKRRRK) | 125

Same assay, conditions: SPR; XRRQRR-6mer and RRQRRX-6mer

Row | Substance | Binding affinity, relative value to the RRQRR sequence
142 | 3622 (RRQRRA) [compound 3622] | 113
143 | 3628 (RRQRRM) [compound 3628] | 122
144 | 3620 (ERRQRR) [compound 3620] | 147
145 | 3605 (PRRQRR) [compound 3605] | 133
146 | 3626 (RRQRRL) [compound 3626] | 141

Same assay, conditions: SPR; peptides tested at 10 μM; 5mer Bottom sequence

Row | Substance | Binding affinity [Ru]
147 | 5mer-884 (KIWEK) | 28
148 | 5mer-1190 (RFSEK) | 32
149 | 5mer-1159 (KKWKK) | 17
150 | 5mer-817 (RHKDR) | 23
151 | 5mer-1137 (KEEEK) | 22
